Like-named read-outs stand apart in the source and are kept apart here. Where only a bound is given, the exact number is not on record here.

Assay [1] concerns the target Abeta 1-42 globulomer, P05067. As to the kind of experiment: 42 (globulomer) RLU over 40 (Abeta 1-40 monomer) RLU.
Assay [2] concerns the target Abeta 1-42 globulomer, P05067. As to the kind of experiment: MPA bead capture, CSF + 1 ng/mL globulomer, Abeta immunoassay.
Assay [3] concerns the target Abeta 1-40 monomer, P05067. As to the kind of experiment: MPA bead capture, Abeta 1-40 read-out of the CSF sample (noise).
The next assay deals with Abeta 1-40 monomer (UniProt P05067). The description is as above.
In assay [4] the target is Abeta (1-42) aggregates from Alzheimer's Disease Brain Homogenate (human), P05067. Nature of the assay: MPA, serial dilutions in CSF, LoD = 2x over background.
For assay [5], the target named is ADDL (Abeta42 aggregate), P05067. The assay is described as above.
The target of assay [6] is ASPD (Abeta42 aggregate), P05067. The assay is described as above.
The next assay has as its target Abeta42 fibrils, P05067. The description is as above.
The mark [7] stands for this setting: remark: other sources report otherwise.

As to AAKKAA (modifications not checked), the 42:40 ratio in assay [1] stood at 1.1. For the same molecule, the average RLU (42) in assay [2] is 160 RLU.

As to AAKKKA (modifications not checked), the 42:40 ratio in assay [1] worked out at 1.6. Also, the average RLU (42) in assay [2] worked out at 247 RLU.

Turning to AKKKKK (modifications not checked), the 42:40 ratio in assay [1] turned out to be 2.5. The average RLU (42) in assay [2] worked out at 442 RLU.

Regarding DFKLNFKF (modifications not checked), in assay [1], the 42:40 ratio stood at 2. Moreover, the average RLU (42) in assay [2] was determined as 516 RLU.

Turning to FKFNLFSG (modifications not checked), the 42:40 ratio in assay [1] is 2.4. In assay [3], the average RLU (40) was determined as 1330 RLU. Besides, in assay [2], the average RLU (42) was 3230 RLU.

Regarding FKFKKK (modifications not checked) [link-FKFKKK], the 42:40 ratio in assay [1] was determined as 4.1. Also, the average RLU (42) in assay [2] came out at 808 RLU.

In the case of KKKFKF (modifications not checked) [link-KKKFKF], the 42:40 ratio in assay [1] is 5.9. Moreover, the average RLU (42) in assay [2] is 1650 RLU.

IRYVTHQYILWP (modifications not checked) […]: the 42:40 ratio in assay [1] was 3.2. In addition, the results for the average RLU (40) (in the assay with Abeta 1-40 monomer; in assay [3]) were 348 RLU and 1010 RLU, respectively. Also, the average RLU (42) in assay [2] was determined as 3240 RLU.

In the case of AKKKKA (modifications not checked), in assay [1], the 42:40 ratio was 2.1. Besides, the average RLU (42) in assay [2] was found to be 322 RLU.

B1: Ac-FKFKKK-Link (Ac-FKFKKK-Ahx-Ahx-Cys-NH2) (peptide)
peptide: FKFKKK
HELM: PEPTIDE1{[ac].F.K.F.K.K.K.[O=C(CCCCCN[*:1])[*:2]].[O=C(CCCCCN[*:1])[*:2]].C.[am]}$$$$V2.0
SMILES: CC(=O)N[C@@H](Cc1ccccc1)C(=O)N[C@@H](CCCCN)C(=O)N[C@@H](Cc1ccccc1)C(=O)N[C@@H](CCCCN)C(=O)N[C@@H](CCCCN)C(=O)N[C@@H](CCCCN)C(=O)NCCCCCC(=O)NCCCCCC(=O)N[C@@H](CS)C(N)=O
As for B1, the 42:40 ratio in assay [1] was found to be 5.7. In assay [2], the average RLU (42) turned out to be 2000 RLU. For the same molecule, the LoD was less than 10 pg/mL in assay [4]; 300 pg/mL in assay [5]; 300 pg/mL in assay [6]; 100 pg/mL with Abeta42 fibrils, P05067.

As for AAAKAA (modifications not checked), the 42:40 ratio in assay [1] was found to be 0.8. In addition, in assay [2], the average RLU (42) was 114 RLU.

As to FKFSLFSG (modifications not checked), in assay [1], the 42:40 ratio was found to be 1.5. Besides, the average RLU (40) in assay [3] amounted to 2010 RLU. Further, the average RLU (42) in assay [2] came to 3080 RLU.

For KKKFKF (modifications not checked) [KKKFKF-link], the 42:40 ratio in assay [1] is 3.9. The average RLU (42) in assay [2] is 748 RLU.

Take KKKKKK (modifications not checked): the 42:40 ratio in assay [1] (setting [7]) worked out at 3.3. The average RLU (42) in assay [2] (setting [7]) is 658 RLU.

For ANFFAHSS (modifications not checked), the 42:40 ratio in assay [1] was determined as 1.8. Besides, the average RLU (42) in assay [2] turned out to be 994 RLU.

The values above are taken from patent US20130109581A1, “POSITIVELY CHARGED SPECIES AS BINDING REAGENTS IN THE SEPARATION OF PROTEIN AGGREGATES FROM MONOMERS” (priority 2009, published 2013).
